Where two headings read alike, the source gives them in different places.

What all share (experiment): cell-based or functional assay
In experiment [1] the target is T1, ROR1 expressed on cell surface (Jeko-1 cell line, AMB-LC-0003T and AMB-LC-0002T patient-derived lung cancer … (human, UniProt Q01973 30-937)).
For experiment [2], the target named is T1, ROR1 expressed on cell surface (Jeko-1 …). The source holds these as a separate data set.
The target is the same in experiment [3]. The source holds these as a separate data set.

T1 sequence (Q01973 30-937): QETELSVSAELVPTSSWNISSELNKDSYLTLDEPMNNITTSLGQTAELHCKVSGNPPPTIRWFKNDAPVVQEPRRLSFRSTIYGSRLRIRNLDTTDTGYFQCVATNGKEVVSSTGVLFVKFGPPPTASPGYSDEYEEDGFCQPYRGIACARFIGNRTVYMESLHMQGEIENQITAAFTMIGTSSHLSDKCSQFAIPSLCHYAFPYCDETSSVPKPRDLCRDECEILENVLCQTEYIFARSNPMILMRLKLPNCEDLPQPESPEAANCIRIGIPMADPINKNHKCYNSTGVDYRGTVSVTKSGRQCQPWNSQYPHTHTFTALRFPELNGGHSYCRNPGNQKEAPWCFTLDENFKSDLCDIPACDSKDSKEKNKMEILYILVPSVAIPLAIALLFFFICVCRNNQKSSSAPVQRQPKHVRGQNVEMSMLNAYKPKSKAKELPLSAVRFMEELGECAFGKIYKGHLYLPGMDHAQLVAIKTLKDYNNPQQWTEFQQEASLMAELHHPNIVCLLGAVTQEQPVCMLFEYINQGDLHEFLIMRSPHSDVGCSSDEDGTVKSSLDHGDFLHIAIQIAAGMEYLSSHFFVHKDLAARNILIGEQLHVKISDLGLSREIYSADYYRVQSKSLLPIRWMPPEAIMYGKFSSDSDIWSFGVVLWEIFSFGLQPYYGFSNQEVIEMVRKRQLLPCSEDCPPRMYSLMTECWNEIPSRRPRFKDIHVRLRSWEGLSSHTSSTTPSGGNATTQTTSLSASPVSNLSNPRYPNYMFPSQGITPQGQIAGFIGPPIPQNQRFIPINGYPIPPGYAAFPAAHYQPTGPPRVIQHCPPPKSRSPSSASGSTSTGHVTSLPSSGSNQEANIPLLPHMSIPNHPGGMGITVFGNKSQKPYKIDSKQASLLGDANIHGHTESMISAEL

B1: P015042-vc-PAB-MMAE (antibody, IgG1, V domains shown)
VH: EVQLLESGGGLVQPGGSLRLSCAASGFTFSDYAMSWVRQAPGKGLEWVSVISSDGGSIYYADSVKGRFTISRDNSKNTLYLQMNSLRAEDTAVYYCAKDRSRDMEVDFDYWGQGTLVTVSS
VL: QSVLTQPPSASGTPGQRVTISCSGSSSNIGSNYVTWYQQLPGTAPKLLIYDSSQRPSGVPDRFSGSKSGTSASLAISGLRSEDEADYYCGTWDYSLSGYVFGGGTKLTVL
modifications: maleimidocaproyl-valine-citrulline-p-aminobenzyloxycarbonyl monomethyl auristatin E on cysteine sulfhydryls of reduced disulfides; positions not given; average 3.3 drugs per antibody
For B1, the “IC50, spheroid volume, AMB-LC-0002T (low ROR1 expression)” value in experiment [1] is at least 100 nM. Moreover, in experiment [2], the “Fold Change of IC50, AMB-LC-0002T/AMB-LC-0003T” value is 81.4 fold; the “IC50 (nM), spheroid volume, AMB-LC-0002T (low ROR1 expression)” value was determined as 187 nM; the “IC50 (nM), spheroid volume, AMB-LC-0003T (high ROR1 expression)” value was found to be 2.3 nM. For the same molecule, in experiment [3], the “Fold Change of IC50, AMB-LC-0002T/AMB-LC-0003T” value is 56.3 fold; the “IC50 (nM), spheroid volume after 6 days of treatment, AMB-LC-0003T (high ROR1 expression)” value was 2.88 nM; the “IC50 (nM), spheroid volume, AMB-LC-0002T (very low ROR1 expression)” value was 162 nM.

These data come from US20260028400A1 (AIMED BIO, published 2026).
